Results taken from patent US20100203046A1 (Biogen, published 2010).
Each block holds one binder with its values, some of them ahead of it.

How the values were obtained:
[1] = molecular target: T1, human FcγRIII (CD16), CD16a (F158), on CD16-transfected Jurkat cells (human, UniProt P08637 17-254); test: CD16 bridging assay, purified
T1 construct: whole, on cells

[2] = molecular target: T2, human FcγRI (CD64) on IFNγ-activated U937 cells (human, UniProt P12314 16-374); test: CD64 bridging assay, purified
T2 construct: whole, on cells; also called FcγR1
T2 sequence (P12314 16-374): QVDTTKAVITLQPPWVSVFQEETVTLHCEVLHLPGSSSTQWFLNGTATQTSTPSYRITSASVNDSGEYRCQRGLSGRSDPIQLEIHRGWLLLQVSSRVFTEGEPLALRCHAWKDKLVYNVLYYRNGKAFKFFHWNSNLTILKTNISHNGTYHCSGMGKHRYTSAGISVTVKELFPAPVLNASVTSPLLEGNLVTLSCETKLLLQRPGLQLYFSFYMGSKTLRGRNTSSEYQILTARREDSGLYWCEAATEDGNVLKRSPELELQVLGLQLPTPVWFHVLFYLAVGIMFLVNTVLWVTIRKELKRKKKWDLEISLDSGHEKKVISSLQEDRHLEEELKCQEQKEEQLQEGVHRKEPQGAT

[3] = molecular target: T3, GST-tagged FcγRIII, CD16a (V158) (UniProt P08637 17-208, limits assumed); test: AlphaScreen competition vs huIgG1 beads, purified
T3 construct: the canonical entry carries F there; Captured by biotinylated anti-GST mAb on streptavidin donor beads; also called GST-FcγRIII; not shown: GST tag
T3 sequence (P08637 17-208 F176V limits assumed): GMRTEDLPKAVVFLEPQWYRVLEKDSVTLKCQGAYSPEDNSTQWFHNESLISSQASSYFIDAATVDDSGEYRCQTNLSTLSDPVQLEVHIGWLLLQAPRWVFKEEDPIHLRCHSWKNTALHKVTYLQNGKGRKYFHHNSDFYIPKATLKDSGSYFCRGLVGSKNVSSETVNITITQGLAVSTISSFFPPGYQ
Protocol: The relative binding affinities to FcγRIII (CD16), of the variant antibodies, was determined using an AlphaScreen assay (Amplified Luminescent Proximity Homogeneous Assay, PerkinElmer, MA, USA). Laser excitation of a donor bead excites oxygen, which if in close proximity to an acceptor bead generates a cascade of chemiluminescent events, ultimately leading to fluorescence emission at 520-620 nm. […] The reaction was carried out for one hour in a 25 μl volume and plates were read in the Fusion Alpha reader (PerkinElmer).

[4] = molecular target: T1, human FcγRIII (CD16), CD16a (F158), on …; test: CD16 bridging assay, transient
human C1q (Sigma C0660) = molecular target: T4, human C1q (Sigma C0660) (human, UniProt P02745 23-245; P02746 28-253; P02747 29-245); test: C1q ELISA on CD2, purified
T4 construct: Bought protein; also called complement protein C1q
T4 sequence (P02745 23-245 limits assumed, chain 1 of 3): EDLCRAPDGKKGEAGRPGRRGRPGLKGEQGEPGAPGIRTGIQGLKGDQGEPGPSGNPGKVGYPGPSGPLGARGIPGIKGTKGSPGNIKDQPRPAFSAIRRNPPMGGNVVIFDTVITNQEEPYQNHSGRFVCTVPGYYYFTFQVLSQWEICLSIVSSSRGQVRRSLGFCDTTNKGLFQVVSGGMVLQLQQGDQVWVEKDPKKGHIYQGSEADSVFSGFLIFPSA
T4 sequence (P02746 28-253 limits assumed, chain 2 of 3): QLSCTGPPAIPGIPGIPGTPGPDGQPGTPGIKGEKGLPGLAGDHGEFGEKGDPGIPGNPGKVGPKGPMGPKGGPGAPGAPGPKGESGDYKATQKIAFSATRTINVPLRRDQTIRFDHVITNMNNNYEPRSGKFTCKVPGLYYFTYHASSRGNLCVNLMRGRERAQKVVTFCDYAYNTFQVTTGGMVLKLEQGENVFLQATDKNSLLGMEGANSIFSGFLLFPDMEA
T4 sequence (P02747 29-245 limits assumed, chain 3 of 3): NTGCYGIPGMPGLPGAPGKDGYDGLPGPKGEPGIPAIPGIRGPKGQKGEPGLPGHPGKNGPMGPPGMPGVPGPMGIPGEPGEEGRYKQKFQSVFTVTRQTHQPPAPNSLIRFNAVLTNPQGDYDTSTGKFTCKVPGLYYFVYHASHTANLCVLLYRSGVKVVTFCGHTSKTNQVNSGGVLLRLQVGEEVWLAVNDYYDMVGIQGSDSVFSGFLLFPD
Protocol: The C1q binding assay was performed by coating 96 well Maxisorb ELISA plates (Nalge-Nunc Rochester, N.Y., USA) with 50 μl recombinant soluble human CD2 at 10 μg/ml overnight at 4° C. in PBS. The wells were aspirated and washed three times with wash buffer (PBS, 0.05% Tween 20) and blocked for >1 h with 200 μ/well of block/diluent buffer (0.1 M Na₂HPO₄, pH 7, 0.1 M NaCl, 0.05% Tween 20, 0.1% gelatin). The antibody to be tested was diluted in block/diluent buffer starting at 15 μg/ml with 3-fold dilutions. 50 μl were added per well, and the plates incubated for 2 h at room temperature. After aspirating and washing as above, 50 μl/well of 2 μg/ml of Sigma human C1q (C0660) diluted in block/diluent buffer was added and incubated for 1.5 h at room temperature. After aspirating and washing as above, 50 μl/well of chicken anti human C1q (Cedarlane laboratories CL2101AP), diluted 2,000-fold in block/diluent buffer, was added. After incubation for 1.5 h at room temperature, the wells were aspirated and washed as above. 50 μl/well of donkey F(ab′)₂ anti chicken IgY HRP conjugate (Jackson ImmunoResearch 703-036-155) diluted to 1:5,000 in block/diluent was then added, and the wells incubated for 1 h at room temperature. After aspirating and washing as above, 100 μl TMB substrate (420 μM TMB, 0.004% H₂O₂ in 0.1 M sodium acetate/citric acid buffer, pH 4.9) was added and incubated for 2 min before the reaction was stopped with 100 μl 2 N sulfuric acid. The absorbance was read at 450 nm with a Softmax P instrument, and Softmax software was used to determine the relative binding affinity (C value) with a 4-parameter fit.

[5] = molecular target: T1, human FcγRIII (CD16), CD16a (F158), on …; test: CD16 bridging assay, transient; remark: listed apart in the source
[6] = molecular target: T1, human FcγRIII (CD16), CD16a (F158), on …; test: CD16 bridging assay, purified; remark: listed apart in the source
[7] = molecular target: T1, human FcγRIII (CD16), CD16a (F158), on …; test: CD16 bridging assay, transient; remark: listed apart in the source

T1 sequence (P08637 17-254): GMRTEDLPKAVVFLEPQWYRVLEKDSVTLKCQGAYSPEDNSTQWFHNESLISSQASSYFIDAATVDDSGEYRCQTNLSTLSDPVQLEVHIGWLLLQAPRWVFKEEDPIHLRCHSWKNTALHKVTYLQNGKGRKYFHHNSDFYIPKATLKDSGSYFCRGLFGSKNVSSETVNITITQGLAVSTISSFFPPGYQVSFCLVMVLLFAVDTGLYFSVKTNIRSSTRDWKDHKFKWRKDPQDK

fold increase in binding vs WT [6]: 6 fold
fold increase in binding vs WT [3]: 10 fold
fold increase in binding vs WT [7]: 3 fold
binding result (human C1q (Sigma C0660)): binds
B5: chCB6-huIgG1 S239E/I332E (antibody, name in EU numbering)
heavy: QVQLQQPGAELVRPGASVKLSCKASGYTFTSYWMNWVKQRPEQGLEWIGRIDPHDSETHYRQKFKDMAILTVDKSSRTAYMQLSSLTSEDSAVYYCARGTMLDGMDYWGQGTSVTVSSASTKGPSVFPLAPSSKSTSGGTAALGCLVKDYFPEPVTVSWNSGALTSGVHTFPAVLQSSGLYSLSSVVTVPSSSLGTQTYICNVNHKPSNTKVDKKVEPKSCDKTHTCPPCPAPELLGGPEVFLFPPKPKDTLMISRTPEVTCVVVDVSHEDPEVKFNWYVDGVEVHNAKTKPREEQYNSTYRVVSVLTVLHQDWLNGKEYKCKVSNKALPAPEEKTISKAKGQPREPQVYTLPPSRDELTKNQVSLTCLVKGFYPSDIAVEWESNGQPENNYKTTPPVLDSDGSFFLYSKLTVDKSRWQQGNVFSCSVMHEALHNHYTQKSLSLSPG
light: QIVLTQSPAIMSASPGEKVTMTCRASSSVSHMHWYQQKSGTSPKRWIYDTSKLASGVPARFSGSGSGTSYSLTISSVEAEDAATYYCQQWSSNPLTFGAGTKLELKRTVAAPSVFIFPPSDEQLKSGTASVVCLLNNFYPREAKVQWKVDNALQSGNSQESVTEQDSKDSTYSLSSTLTLSKADYEKHKVYACEVTHQGLSSPVTKSFNRGEC
notes: copies: 2 + 2

binding result [5]: no binding
B6: chCB6-huIgG1 S239P (antibody, name in EU numbering)
heavy: not shown
light: QIVLTQSPAIMSASPGEKVTMTCRASSSVSHMHWYQQKSGTSPKRWIYDTSKLASGVPARFSGSGSGTSYSLTISSVEAEDAATYYCQQWSSNPLTFGAGTKLELKRTVAAPSVFIFPPSDEQLKSGTASVVCLLNNFYPREAKVQWKVDNALQSGNSQESVTEQDSKDSTYSLSSTLTLSKADYEKHKVYACEVTHQGLSSPVTKSFNRGEC
notes: copies: 2 + 2

fold increase in binding vs WT [1]: 3 fold
binding result [2]: binds
fold increase in binding vs WT [3]: 8 fold
fold increase in binding vs WT [4]: 4 fold
fold decrease in binding vs WT (human C1q (Sigma C0660)): 2 fold
B8: chCB6-huIgG1 S239E (antibody, name in EU numbering)
heavy: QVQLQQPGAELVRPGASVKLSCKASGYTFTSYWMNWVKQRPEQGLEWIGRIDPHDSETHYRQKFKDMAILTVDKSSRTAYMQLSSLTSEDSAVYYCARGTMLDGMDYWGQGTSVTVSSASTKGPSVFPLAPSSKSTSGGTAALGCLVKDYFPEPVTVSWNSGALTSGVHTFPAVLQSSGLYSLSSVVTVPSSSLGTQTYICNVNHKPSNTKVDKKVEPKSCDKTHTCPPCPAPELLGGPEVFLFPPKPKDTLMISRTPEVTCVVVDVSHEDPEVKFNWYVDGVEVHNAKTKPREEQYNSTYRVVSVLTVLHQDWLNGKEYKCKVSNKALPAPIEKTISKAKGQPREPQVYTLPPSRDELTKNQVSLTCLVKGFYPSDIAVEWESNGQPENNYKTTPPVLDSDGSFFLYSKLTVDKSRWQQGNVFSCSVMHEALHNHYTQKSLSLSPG
light: QIVLTQSPAIMSASPGEKVTMTCRASSSVSHMHWYQQKSGTSPKRWIYDTSKLASGVPARFSGSGSGTSYSLTISSVEAEDAATYYCQQWSSNPLTFGAGTKLELKRTVAAPSVFIFPPSDEQLKSGTASVVCLLNNFYPREAKVQWKVDNALQSGNSQESVTEQDSKDSTYSLSSTLTLSKADYEKHKVYACEVTHQGLSSPVTKSFNRGEC
notes: copies: 2 + 2

fold increase in binding vs WT [6]: 6 fold
fold increase in binding vs WT [7]: 3 fold
B9: chCB6-huIgG1 S239D/H435S (antibody, name in EU numbering)
heavy: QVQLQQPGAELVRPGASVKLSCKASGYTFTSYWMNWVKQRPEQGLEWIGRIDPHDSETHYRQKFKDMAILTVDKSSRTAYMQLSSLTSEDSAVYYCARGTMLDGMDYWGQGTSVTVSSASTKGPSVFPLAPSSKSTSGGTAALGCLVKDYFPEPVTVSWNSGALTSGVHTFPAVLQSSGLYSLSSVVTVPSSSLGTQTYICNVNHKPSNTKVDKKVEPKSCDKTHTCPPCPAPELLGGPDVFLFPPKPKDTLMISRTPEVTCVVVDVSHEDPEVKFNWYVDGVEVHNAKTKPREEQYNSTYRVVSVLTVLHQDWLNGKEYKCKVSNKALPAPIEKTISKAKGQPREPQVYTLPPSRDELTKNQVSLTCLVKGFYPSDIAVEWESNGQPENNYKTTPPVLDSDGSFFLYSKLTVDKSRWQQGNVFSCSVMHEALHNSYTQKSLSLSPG
light: QIVLTQSPAIMSASPGEKVTMTCRASSSVSHMHWYQQKSGTSPKRWIYDTSKLASGVPARFSGSGSGTSYSLTISSVEAEDAATYYCQQWSSNPLTFGAGTKLELKRTVAAPSVFIFPPSDEQLKSGTASVVCLLNNFYPREAKVQWKVDNALQSGNSQESVTEQDSKDSTYSLSSTLTLSKADYEKHKVYACEVTHQGLSSPVTKSFNRGEC
notes: copies: 2 + 2

fold increase in binding vs WT [6]: 8 fold
fold increase in binding vs WT [3]: 7 fold
fold increase in binding vs WT [7]: 3 fold
binding result (human C1q (Sigma C0660)): binds
B10: chCB6-huIgG1 S239E/I332D (antibody, name in EU numbering)
heavy: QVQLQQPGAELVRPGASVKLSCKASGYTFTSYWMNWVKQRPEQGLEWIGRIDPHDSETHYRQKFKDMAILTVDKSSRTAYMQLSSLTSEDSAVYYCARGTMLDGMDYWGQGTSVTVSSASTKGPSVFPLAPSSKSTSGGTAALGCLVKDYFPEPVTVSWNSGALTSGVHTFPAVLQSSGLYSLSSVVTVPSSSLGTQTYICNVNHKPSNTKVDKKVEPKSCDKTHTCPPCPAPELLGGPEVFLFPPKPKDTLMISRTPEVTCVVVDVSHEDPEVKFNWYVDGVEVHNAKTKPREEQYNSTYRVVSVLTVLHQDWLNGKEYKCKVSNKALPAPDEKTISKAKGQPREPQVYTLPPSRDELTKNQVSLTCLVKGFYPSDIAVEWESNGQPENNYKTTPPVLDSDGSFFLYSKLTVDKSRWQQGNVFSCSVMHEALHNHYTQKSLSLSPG
light: QIVLTQSPAIMSASPGEKVTMTCRASSSVSHMHWYQQKSGTSPKRWIYDTSKLASGVPARFSGSGSGTSYSLTISSVEAEDAATYYCQQWSSNPLTFGAGTKLELKRTVAAPSVFIFPPSDEQLKSGTASVVCLLNNFYPREAKVQWKVDNALQSGNSQESVTEQDSKDSTYSLSSTLTLSKADYEKHKVYACEVTHQGLSSPVTKSFNRGEC
notes: copies: 2 + 2

fold decrease in binding vs WT [5]: 3 fold
B11: chCB6-huIgG1 L328T (antibody, name in EU numbering)
heavy: not shown
light: QIVLTQSPAIMSASPGEKVTMTCRASSSVSHMHWYQQKSGTSPKRWIYDTSKLASGVPARFSGSGSGTSYSLTISSVEAEDAATYYCQQWSSNPLTFGAGTKLELKRTVAAPSVFIFPPSDEQLKSGTASVVCLLNNFYPREAKVQWKVDNALQSGNSQESVTEQDSKDSTYSLSSTLTLSKADYEKHKVYACEVTHQGLSSPVTKSFNRGEC
notes: copies: 2 + 2

binding result [5]: no binding
B13: chCB6-huIgG1 S239H (antibody, name in EU numbering)
heavy: not shown
light: QIVLTQSPAIMSASPGEKVTMTCRASSSVSHMHWYQQKSGTSPKRWIYDTSKLASGVPARFSGSGSGTSYSLTISSVEAEDAATYYCQQWSSNPLTFGAGTKLELKRTVAAPSVFIFPPSDEQLKSGTASVVCLLNNFYPREAKVQWKVDNALQSGNSQESVTEQDSKDSTYSLSSTLTLSKADYEKHKVYACEVTHQGLSSPVTKSFNRGEC
notes: copies: 2 + 2

The next lines start with the binder.

B1: chCB6-huIgG1 S239D (antibody, name in EU numbering)
heavy: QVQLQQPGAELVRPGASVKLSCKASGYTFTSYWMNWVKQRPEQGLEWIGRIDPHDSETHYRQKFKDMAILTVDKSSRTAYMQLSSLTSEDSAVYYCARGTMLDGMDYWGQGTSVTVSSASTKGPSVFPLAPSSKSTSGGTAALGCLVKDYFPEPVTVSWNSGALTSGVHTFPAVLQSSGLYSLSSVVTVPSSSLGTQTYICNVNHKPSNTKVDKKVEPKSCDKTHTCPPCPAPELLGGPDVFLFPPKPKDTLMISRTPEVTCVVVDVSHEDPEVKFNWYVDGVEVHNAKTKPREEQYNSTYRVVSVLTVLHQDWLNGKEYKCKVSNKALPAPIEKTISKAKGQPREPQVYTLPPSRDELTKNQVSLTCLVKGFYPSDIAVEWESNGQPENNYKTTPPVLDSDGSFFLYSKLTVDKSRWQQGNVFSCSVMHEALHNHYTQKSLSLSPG
light: QIVLTQSPAIMSASPGEKVTMTCRASSSVSHMHWYQQKSGTSPKRWIYDTSKLASGVPARFSGSGSGTSYSLTISSVEAEDAATYYCQQWSSNPLTFGAGTKLELKRTVAAPSVFIFPPSDEQLKSGTASVVCLLNNFYPREAKVQWKVDNALQSGNSQESVTEQDSKDSTYSLSSTLTLSKADYEKHKVYACEVTHQGLSSPVTKSFNRGEC
notes: copies: 2 + 2
fold increase in binding vs WT [1]: 6 fold
binding result [2]: binds
fold increase in binding vs WT [3]: 9 fold
fold increase in binding vs WT [4]: 6 fold
fold decrease in binding vs WT (human C1q (Sigma C0660)): 2 fold

B2: chCB6-huIgG1 I332D (antibody, name in EU numbering)
heavy: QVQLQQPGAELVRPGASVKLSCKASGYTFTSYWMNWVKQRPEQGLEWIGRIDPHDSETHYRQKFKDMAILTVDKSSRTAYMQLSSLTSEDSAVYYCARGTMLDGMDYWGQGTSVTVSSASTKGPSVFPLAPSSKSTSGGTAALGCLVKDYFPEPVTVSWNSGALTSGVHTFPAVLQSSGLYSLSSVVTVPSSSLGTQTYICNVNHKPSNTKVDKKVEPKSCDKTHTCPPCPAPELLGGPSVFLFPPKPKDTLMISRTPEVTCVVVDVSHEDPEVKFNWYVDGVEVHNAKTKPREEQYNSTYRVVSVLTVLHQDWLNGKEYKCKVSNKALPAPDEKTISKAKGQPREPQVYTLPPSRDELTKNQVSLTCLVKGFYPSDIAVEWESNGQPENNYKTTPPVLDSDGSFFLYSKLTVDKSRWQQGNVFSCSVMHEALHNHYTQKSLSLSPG
light: QIVLTQSPAIMSASPGEKVTMTCRASSSVSHMHWYQQKSGTSPKRWIYDTSKLASGVPARFSGSGSGTSYSLTISSVEAEDAATYYCQQWSSNPLTFGAGTKLELKRTVAAPSVFIFPPSDEQLKSGTASVVCLLNNFYPREAKVQWKVDNALQSGNSQESVTEQDSKDSTYSLSSTLTLSKADYEKHKVYACEVTHQGLSSPVTKSFNRGEC
notes: copies: 2 + 2
fold increase in binding vs WT [1]: 9 fold
binding result [2]: binds
fold increase in binding vs WT [3]: 4 fold
fold increase in binding vs WT [4]: 15 fold
binding result (human C1q (Sigma C0660)): binds

B3: chCB6-huIgG1 G236A (antibody, name in EU numbering)
heavy: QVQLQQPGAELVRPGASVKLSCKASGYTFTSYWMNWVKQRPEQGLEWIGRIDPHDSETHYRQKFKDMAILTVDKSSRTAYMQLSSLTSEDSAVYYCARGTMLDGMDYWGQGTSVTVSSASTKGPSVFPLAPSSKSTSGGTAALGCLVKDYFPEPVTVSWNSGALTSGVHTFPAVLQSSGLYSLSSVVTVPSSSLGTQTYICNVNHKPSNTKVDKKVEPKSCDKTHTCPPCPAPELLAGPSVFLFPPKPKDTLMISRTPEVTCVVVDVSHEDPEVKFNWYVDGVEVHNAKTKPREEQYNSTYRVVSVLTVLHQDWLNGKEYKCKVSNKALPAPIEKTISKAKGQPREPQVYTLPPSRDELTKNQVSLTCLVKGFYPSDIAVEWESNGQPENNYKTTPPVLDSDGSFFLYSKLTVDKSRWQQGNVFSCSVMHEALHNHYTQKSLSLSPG
light: QIVLTQSPAIMSASPGEKVTMTCRASSSVSHMHWYQQKSGTSPKRWIYDTSKLASGVPARFSGSGSGTSYSLTISSVEAEDAATYYCQQWSSNPLTFGAGTKLELKRTVAAPSVFIFPPSDEQLKSGTASVVCLLNNFYPREAKVQWKVDNALQSGNSQESVTEQDSKDSTYSLSSTLTLSKADYEKHKVYACEVTHQGLSSPVTKSFNRGEC
notes: copies: 2 + 2
fold decrease in binding vs WT [5]: 2 fold

B4: chCB6-huIgG1 H268D (antibody, name in EU numbering)
heavy: not shown
light: QIVLTQSPAIMSASPGEKVTMTCRASSSVSHMHWYQQKSGTSPKRWIYDTSKLASGVPARFSGSGSGTSYSLTISSVEAEDAATYYCQQWSSNPLTFGAGTKLELKRTVAAPSVFIFPPSDEQLKSGTASVVCLLNNFYPREAKVQWKVDNALQSGNSQESVTEQDSKDSTYSLSSTLTLSKADYEKHKVYACEVTHQGLSSPVTKSFNRGEC
notes: copies: 2 + 2
fold increase in binding vs WT [5]: 3 fold

B7: chCB6-huIgG1 A330H (antibody, name in EU numbering)
heavy: not shown
light: QIVLTQSPAIMSASPGEKVTMTCRASSSVSHMHWYQQKSGTSPKRWIYDTSKLASGVPARFSGSGSGTSYSLTISSVEAEDAATYYCQQWSSNPLTFGAGTKLELKRTVAAPSVFIFPPSDEQLKSGTASVVCLLNNFYPREAKVQWKVDNALQSGNSQESVTEQDSKDSTYSLSSTLTLSKADYEKHKVYACEVTHQGLSSPVTKSFNRGEC
notes: copies: 2 + 2
binding result [5]: binds

B12: chCB6-huIgG1 L234Q (antibody, name in EU numbering)
heavy: not shown
light: QIVLTQSPAIMSASPGEKVTMTCRASSSVSHMHWYQQKSGTSPKRWIYDTSKLASGVPARFSGSGSGTSYSLTISSVEAEDAATYYCQQWSSNPLTFGAGTKLELKRTVAAPSVFIFPPSDEQLKSGTASVVCLLNNFYPREAKVQWKVDNALQSGNSQESVTEQDSKDSTYSLSSTLTLSKADYEKHKVYACEVTHQGLSSPVTKSFNRGEC
notes: copies: 2 + 2
fold decrease in binding vs WT [5]: 5 fold

B14: chCB6-huIgG1 H268P (antibody, name in EU numbering)
heavy: not shown
light: QIVLTQSPAIMSASPGEKVTMTCRASSSVSHMHWYQQKSGTSPKRWIYDTSKLASGVPARFSGSGSGTSYSLTISSVEAEDAATYYCQQWSSNPLTFGAGTKLELKRTVAAPSVFIFPPSDEQLKSGTASVVCLLNNFYPREAKVQWKVDNALQSGNSQESVTEQDSKDSTYSLSSTLTLSKADYEKHKVYACEVTHQGLSSPVTKSFNRGEC
notes: copies: 2 + 2
fold decrease in binding vs WT [5]: 3 fold
